Experimental data: publication PMC5799255, “Histone H5 is a potent Antimicrobial Agent and a template for novel Antimicrobial Peptides” (Scientific Reports, 2018)
Read-outs that look alike come from different tables or passages of the source.

Legend:
[1] = test system: Escherichia coli (O157:H7); assay: Broth microdilution assay (MIC/MBC), planktonic bacteria; assay type: cell-based
Experimental: (§1) Antimicrobial activity of histone H5 against a variety of Gram-positive and Gram-negative planktonic bacteria was evaluated using a broth microdilution assay. The average minimum inhibitory concentration (MIC) and minimum bactericidal concentration (MBC) values (mean ± SD, n = 3) for six Gram-positive and four Gram-negative bacterial species are shown in Table 2. […] E. faecalis was the least susceptible to histone H5 inhibition, requiring over 32 µg/mL for complete bacterial growth inhibition which was the highest histone H5 concentration tested.
(§2) The bacterial strains tested in this study were Gram-positive bacteria (Bacillus cereus (ATCC 11778), methicillin-sensitive Staphylococcus aureus (ATCC 6538), methicillin-resistant Staphylococcus aureus (ATCC 29247), Listeria monocytogenes (ATCC 19112), Enterococcus faecalis (clinical isolate) and vancomycin-resistant Enterococcus (ATCC 51299)) and Gram-negative bacteria Escherichia coli K12 (ATCC 29425), Escherichia coli (O157:H7), Pseudomonas aeruginosa (ATCC 15442) and Salmonella typhimurium (ATCC 1535)). Bacterial colonies from glycerol stocks were plated on LB agar plates (BHI agar plates for L. monocytogenes) and incubated overnight at 37 °C. Single colonies from these plates were grown in 3 mL of LB broth (BHI broth for L. monocytogenes) overnight at 37 °C and shaken at 250 rpm. […] The bacterial suspension was pelleted at 3,000 × g, 4 °C for 10 minutes and washed with PBS (twice), and then adjusted to 10^5–10^6 CFUs/mL in PBS.
(§3) Supplementary Information
(§4) Broth microdilution assay
(§5) The protocol for this step of the project was based on established methods22. […] The microplate was incubated in the EON microplate reader overnight at 206 oscillations/min and at 37°C. […]
This assay is based on a previously described protocol22. The potential for hemolytic activity was assessed using rat red blood cells (RBCs) which were obtained from the University of Ottawa Animal Care Facility and in accordance with the University of Ottawa Animal Care

[2] = test system: methicillin-sensitive Staphylococcus aureus (ATCC 6538); assay: as above; assay type: cell-based; details: mean ± SD, n = 3
Experimental: as §1, §2, §3, §4
(§6) The protocol for this step of the project was based on established methods22. Histone H5 or the peptides were dissolved in sterile water, pH 7.4, serially two-fold diluted and aliquoted in a 1:1 (v/v) ratio with bacteria. Kanamycin or ampicillin served as a positive control for inhibition, and sterile water (pH 7.4) as a negative control for inhibition. The tubes were then incubated for 3 hours at 37°C an d shaken at 200 rpm. Next, 100 µL of each tube and 100µL of LB broth (BHI broth for L. monocytogenes) was plated in wells of a 96-well microplate. The microplate was incubated in the EON microplate reader overnight at 206 oscillations/min and at 37°C. During this period, the EON microplate spectrophotometer and Gen5 data analysis software (BioTek, Winooski, VT, USA) were used to monitor the growth of bacteria by measuring the optical density at 600 nm every 30 minutes for 18 hours. The lowest protein concentration without visible bacterial growth was designated as the minimum inhibitory concentration (MIC). Bacteria (10 µL) from the wells at MIC, MIC x 2 and MIC x 3 concentrations of H5 were plated on LB agar (BHI agar for L. monocytogenes) and incubated at 37°C for 18 hours. The lowest concentration of histone H5 without a single colony was designated as the minimum bactericidal concentration (MBC). […]

[3] = test system: Salmonella typhimurium (ATCC 1535); assay: as above; assay type: cell-based
Experimental: as §1, §2, §3, §4, §6

[4] = test system: vancomycin-resistant Enterococcus (ATCC 51299); assay: as above; assay type: cell-based; details: mean ± SD, n = 3
Experimental: as §1, §2, §3, §4, §6

[5] = test system: Escherichia coli K12 (ATCC 29425); assay: as above; assay type: cell-based
Experimental: as §1, §2, §3, §4, §6

[6] = test system: Bacillus cereus (ATCC 11778); assay: as above; assay type: cell-based; details: mean ± SD, n = 3
Experimental: as §1, §2, §3, §4, §6

[7] = test system: methicillin-resistant Staphylococcus aureus (ATCC 29247); assay: as above; assay type: cell-based; details: mean ± SD, n = 3
Experimental: as §1, §2, §3, §4, §6

[8] = test system: Enterococcus faecalis (clinical isolate); assay: as above; assay type: cell-based; details: mean ± SD, n = 3
Experimental: as §1, §2, §3, §4, §6

[9] = test system: Pseudomonas aeruginosa (ATCC 15442)
Experimental: (§7) Antimicrobial activity of histone H5 against a variety of Gram-positive and Gram-negative planktonic bacteria was evaluated using a broth microdilution assay.
(§8) The antimicrobial activity of these peptides against Gram-positive and Gram-negative planktonic bacteria was evaluated using broth microdilution assays.
as §2, §3, §4
(§9) The protocol for this step of the project was based on established methods22. Histone H5 or the peptides were dissolved in sterile water, pH 7.4, serially two-fold diluted and aliquoted in a 1:1 (v/v) ratio with bacteria. Kanamycin or ampicillin served as a positive control for inhibition, and sterile water (pH 7.4) as a negative control for inhibition. The tubes were then incubated for 3 hours at 37°C an d shaken at 200 rpm. Next, 100 µL of each tube and 100µL of LB broth (BHI broth for L. monocytogenes) was plated in wells of a 96-well microplate. The microplate was incubated in the EON microplate reader overnight at 206 oscillations/min and at 37°C. During this period, the EON microplate spectrophotometer and Gen5 data analysis software (BioTek, Winooski, VT, USA) were used to monitor the growth of bacteria by measuring the optical density at 600 nm every 30 minutes for 18 hours. The lowest protein concentration without visible bacterial growth was designated as the minimum inhibitory concentration (MIC). Bacteria (10 µL) from the wells at MIC, MIC x 2 and MIC x 3 concentrations of H5 were plated on LB agar (BHI agar for L. monocytogenes) and incubated at 37°C for 18 hours. The lowest concentration of histone H5 without a single colony was designated as the minimum bactericidal concentration (MBC).

[10] = test system: Listeria monocytogenes (ATCC 19112); details: for MIC: broth microdilution
Experimental: as §7, §8, §2, §3, §4, §9

[11] = test system: Gram-positive and Gram-negative planktonic bacteria; assay: Broth microdilution assay, summary over the planktonic bacteria tested; assay type: cell-based; details: bactericidal when MBC ≤4 times the MIC
Experimental: as §1
The bacterial strains tested in this study were Gram-positive bacteria (Bacillus cereus (ATCC 11778), methicillin-sensitive Staphylococcus aureus (ATCC 6538), methicillin-resistant Staphylococcus aureus (ATCC 29247), Listeria monocytogenes (ATCC 19112), Enterococcus faecalis (clinical isolate) and vancomycin-resistant Enterococcus (ATCC 51299)) and Gram-negative bacteria Escherichia coli K12 (ATCC 29425), Escherichia coli (O157:H7), Pseudomonas aeruginosa (ATCC 15442) and Salmonella typhimurium (ATCC 1535)). Bacterial colonies from glycerol stocks were plated on LB agar plates (BHI agar plates for L. monocytogenes) and incubated overnight at 37 °C. […]
as §5

[12] = broth microdilution, 3 h at 37 °C, then OD600 growth 18 h in LB broth, mean ± SD, n = 3
[13] = plated on LB agar, 37 °C 18 h, lowest concentration without a single colony, mean ± SD, n = 3
[14] = value in the figure, representative of three independent trials, each in triplicate
[15] = broth microdilution, 3 h at 37 °C, then OD600 growth 18 h in LB broth
[16] = plated on LB agar, 37 °C 18 h, lowest concentration without a single colony

B1: histone H5: erythrocyte-specific linker histone purified from chicken erythrocytes, 190 amino acids (protein, UniProt P02259 2-190, looked up)
Histone H5: TESLVLSPAPAKPKRVKASRRSASHPTYSEMIAAAIRAEKSRGGSSRQSIQKYIKSHYKVGHNADLQIKLSIRRLLAAGVLKQTKGVGASGSFRLAKSDKAKRSPGKKKKAVRRSTSPKKAARPRKARSPAKKPKATARKARKKSRASPKKAKKPKTVKAKSRKASKAKKVKRSKPRAKSGARKSPKKK
MIC [1, 12]: 4.9 ± 1.5 µg/mL
MBC [1, 13]: 4.9 ± 1.5 µg/mL
MIC [1, 14]: 6.7 µg/mL
MIC [2, 15]: 3.8 ± 0.4 µg/mL
MBC [2, 16]: 4 ± 0 µg/mL
MIC [3, 12]: 1.9 ± 1.8 µg/mL
MBC [3, 13]: 1.9 ± 1.8 µg/mL
MIC [3, 14]: 4 µg/mL
MIC [4, 15]: 4 ± 1.2 µg/mL
MBC [4, 16]: 4.4 ± 1.9 µg/mL
MIC [5, 12]: 4.9 ± 1.5 µg/mL
MBC [5, 13]: 6.7 ± 2.3 µg/mL
MIC [5, 14]: 6.7 µg/mL
MIC ([6]; broth microdilution, 3 h at 37 °C with bacteria 1:1 (v/v), then OD600 growth 18 h in LB broth, lowest concentration without visible growth): 3.8 ± 1.7 µg/mL
MBC ([6]; wells at MIC, MIC x 2, MIC x 3 plated on LB agar, 37 °C 18 h, lowest concentration without a single colony): 3.8 ± 1.7 µg/mL
MIC [7, 15]: 2.4 ± 0.8 µg/mL
MBC [7, 16]: 2.7 ± 1.2 µg/mL
MIC ([8]; broth microdilution, 3 h at 37 °C, then OD600 growth 18 h in LB broth, highest concentration tested 32 µg/mL): >32 µg/mL
MBC [8, 16]: >32 µg/mL
MIC ([9]; broth microdilution, MIC given in molar units): 0.1 ± 0.1 µM
MIC [9, 12]: 2.9 ± 1 µg/mL
MBC [9, 13]: 2.9 ± 1 µg/mL
MIC [9, 14]: 4 µg/mL
MIC ([10]; MIC given in molar units): 0.2 ± 0 µM
MIC ([10]; 3 h at 37 °C, then OD600 growth 18 h in BHI broth, mean ± SD, n = 3): 4 ± 0 µg/mL
MBC ([10]; plated on BHI agar, 37 °C 18 h, lowest concentration without a single colony, mean ± SD, n = 3): 4.4 ± 0.8 µg/mL
MBC/MIC [11]: ≤ 4
